In test [1] the target is T1, TGFβ2 (R&D Systems).
T1 construct: also called TGFB2
T1 sequence (P61812 303-414, species assumed, looked up): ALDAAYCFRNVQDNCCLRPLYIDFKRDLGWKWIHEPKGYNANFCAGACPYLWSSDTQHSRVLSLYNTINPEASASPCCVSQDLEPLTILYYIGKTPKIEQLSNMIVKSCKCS
The test can be described thus: SPR full titration.

Test [2] has as its target T2, TGFβ1 (R&D Systems).
T2 construct: also called TGFB1
Nature of the test: SPR full titration.

Test [3] deals with T3, TGFβ3 (R&D Systems) (Homo sapiens (Human), UniProt P10600 301-412, Active TGFβ3 is a disulfide-linked homodimer of this chain; one copy is given.).
T3 construct: also called TGFB3
T3 sequence: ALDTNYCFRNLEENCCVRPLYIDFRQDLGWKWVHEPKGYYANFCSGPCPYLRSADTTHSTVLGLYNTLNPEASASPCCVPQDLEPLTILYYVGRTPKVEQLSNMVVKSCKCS
Nature of the test: SPR full titration.

The target in test [4] is T1, TGFβ2 (R&D Systems). Nature of the test: cell-based or functional assay.
Test [5] deals with T2, TGFβ1 (R&D Systems). The test can be described thus: cell-based or functional assay.
The target of test [6] is T3, TGFβ3 (R&D Systems). Nature of the test: cell-based or functional assay.

Substitutions are numbered along the chain they refer to.

The record followed here is patent US20220119513A1 (ZOETIS SERVICES, published 2022).

The Kd is a measure of binding affinity in units of concentration.

T2 sequence (P01137 279-390): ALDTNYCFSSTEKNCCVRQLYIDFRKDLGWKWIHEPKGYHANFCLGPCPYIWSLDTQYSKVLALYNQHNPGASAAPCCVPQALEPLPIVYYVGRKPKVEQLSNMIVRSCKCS

B1: affinity matured HcLb 237 (antibody, V domains shown)
VH: EVQLVQSGAEVKKPGASVKVSCKTSGYTFITYWMNWVRQAPGAGLDWMGQIFPAWGVTNYNEMFEGRVTLTADTSTSTAYMELSSLRAGDIAVYYCARGYGNYALDAMDYWGQGTLVTVSS
VL: DIVMTQTPPSLSVSPRETASISCRASESVDSYGNSFMHWYLQKPGQSPQLLIYLASNLESGVSDRFSGSGSGTDFTLRISRVEANDTGVYYCQQNDEDPLSFGQGTK
notes: full IgG; also called canHcLb/55SW/100DY/57/SV + canHcLb/237ND/242TS
Consider B1, for which the Kd with TGFβ2 (R&D Systems) [1] turned out to be 4.07 nM; in the test with TGFβ1 (R&D Systems) [2] it was 2.27 nM; with TGFβ3 (R&D Systems) [3], 0.476 nM. The “pSmad-3, IC50” value came to 1.6 nM in the test with TGFβ2 (R&D Systems) [4], 0.76 nM in the test with TGFβ1 (R&D Systems) [5] and 1.05 nM in the test with TGFβ3 (R&D Systems) [6].

B2: affinity matured HcLb 188 (antibody, V domains shown)
VH: B1 VH with V57S
VL: DIVMTQTPPSLSVSPRETASISCRASESVDSYGNSFMHWYLQKPGQSPQLLIYLASNLESGVSDRFSGSGSGTDFTLRISRVEANDTGVYYCQQNNEDPLTFGQ
notes: full IgG; constant regions not restated
As for B2, the values for the Kd with TGFβ2 (R&D Systems) [1], in the test with TGFβ1 (R&D Systems) [2] and with TGFβ3 (R&D Systems) [3] were 0.937 nM, 3.96 nM and 0.417 nM, respectively. Also, the results for the “pSmad-3, IC50” value with TGFβ2 (R&D Systems) [4], with TGFβ1 (R&D Systems) [5] and in the test with TGFβ3 (R&D Systems) [6] were 2.29 nM, 2.73 nM and 1.46 nM, respectively.

B3: affinity matured HcLb 259 (antibody, V domains shown)
VH: B1 VH with V57M
VL: B2 VL
notes: as for B2
For the molecule B3, the Kd with TGFβ2 (R&D Systems) [1] was 3.75 nM; with TGFβ1 (R&D Systems) [2] it was 3.05 nM; with TGFβ3 (R&D Systems) [3], 0.78 nM. Besides, the entries for the “pSmad-3, IC50” value with TGFβ2 (R&D Systems) [4], in the test with TGFβ1 (R&D Systems) [5] and in the test with TGFβ3 (R&D Systems) [6] were 1.37 nM, 0.99 nM and 1.48 nM, respectively.

B4: affinity matured HcLb 261 (antibody, V domains shown)
VH: B1 VH with I30M, V57S
VL: B2 VL
notes: as for B2
For B4, the values for the equilibrium dissociation constant (Kd) with TGFβ2 (R&D Systems) [1], with TGFβ1 (R&D Systems) [2] and with TGFβ3 (R&D Systems) [3] were 3.92 nM, 6.18 nM and 0.87 nM, respectively. Besides, the “pSmad-3, IC50” value with TGFβ2 (R&D Systems) [4] stood at 1.15 nM; in the test with TGFβ1 (R&D Systems) [5], 0.69 nM; with TGFβ3 (R&D Systems) [6] it was 1.2 nM.

B5: affinity matured HcLb 262 (antibody, V domains shown)
VH: B1 VH with T31K, V57S
VL: B2 VL
notes: as for B2
As to B5, the Kd with TGFβ2 (R&D Systems) [1] is 6.73 nM; with TGFβ1 (R&D Systems) [2], 6.18 nM; in the test with TGFβ3 (R&D Systems) [3] it was 0.856 nM. Also, the “pSmad-3, IC50” value with TGFβ2 (R&D Systems) [4] turned out to be 1.85 nM; in the test with TGFβ1 (R&D Systems) [5], 3.16 nM; with TGFβ3 (R&D Systems) [6] it was 1.37 nM.

B6: affinity matured HcLb 263 (antibody, V domains shown)
VH: B1 VH with T28I, V57S
VL: B2 VL
notes: as for B2
Turning to B6, the Kd with TGFβ2 (R&D Systems) [1] was 2.91 nM; with TGFβ1 (R&D Systems) [2], 3.76 nM; with TGFβ3 (R&D Systems) [3], 0.37 nM. Further, the “pSmad-3, IC50” value in the test with TGFβ2 (R&D Systems) [4] is 2.1 nM; with TGFβ1 (R&D Systems) [5], 1.41 nM; with TGFβ3 (R&D Systems) [6], 1.03 nM.

B7: affinity matured HcLb 258 (antibody, V domains shown)
VH: B1 VH with I30M, T31K, V57S
VL: B2 VL
notes: as for B2
Turning to B7, the Kd in the test with TGFβ2 (R&D Systems) [1] was 4.4 nM; in the test with TGFβ1 (R&D Systems) [2], 3.81 nM; with TGFβ3 (R&D Systems) [3], 8.6 nM. Besides, the entries for the “pSmad-3, IC50” value with TGFβ2 (R&D Systems) [4], with TGFβ1 (R&D Systems) [5] and in the test with TGFβ3 (R&D Systems) [6] were 0.79 nM, 0.61 nM and 1.09 nM, respectively.

B8: affinity matured HcLb 260 (antibody, V domains shown)
VH: SEVQLVQSGAEVKKPGASVKVSCKTSGYTFITYWMNWVRQAPGAGLDWMGQIFPAWGVTNYNEMFEGRVTLTADTSTSTAYMELSSLRAGDIAVYYCARGYGNYALDAMDYWGQGTLVTVSS
VL: B2 VL
notes: as for B2
With B8, the results for the Kd with TGFβ2 (R&D Systems) [1], with TGFβ1 (R&D Systems) [2] and with TGFβ3 (R&D Systems) [3] were 4.36 nM, 3.79 nM and 0.79 nM, respectively. In addition, the “pSmad-3, IC50” value with TGFβ2 (R&D Systems) [4] is 1.64 nM; with TGFβ1 (R&D Systems) [5], 1.33 nM; in the test with TGFβ3 (R&D Systems) [6], 1.24 nM.
